Assay results taken from PMC10397247.
Read-outs that look alike come from different tables or passages of the source.

Key:
Test in all cases: two-hybrid library CCmax;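 note: natural log of median RNA to DNA barcode read ratio; higher means stronger binding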
4H2611-AA = biological target: T1, 4H2611-AA
T1 chain: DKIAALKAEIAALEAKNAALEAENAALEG

4H3606-AA = biological target: T2, 4H3606-AA
T2 chain: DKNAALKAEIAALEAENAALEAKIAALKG

4H3631-AA = biological target: T3, 4H3631-AA; conditions: mean of both orientations
T3 chain: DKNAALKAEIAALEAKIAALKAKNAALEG

4H697-AA = biological target: T4, 4H697-AA; conditions: mean of both orientations
T4 chain: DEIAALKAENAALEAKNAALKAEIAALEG

4H3697-AA = biological target: T5, 4H3697-AA; conditions: mean of both orientations
T5 chain: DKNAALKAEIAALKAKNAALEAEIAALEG

4H3865-AA = biological target: T6, 4H3865-AA; conditions: mean of both orientations
T6 chain: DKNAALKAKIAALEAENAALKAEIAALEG

4H717-AA = biological target: T7, 4H717-AA; conditions: mean of both orientations
T7 chain: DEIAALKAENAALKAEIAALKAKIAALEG

4H384-AA = biological target: T8, 4H384-AA; conditions: mean of both orientations
T8 chain: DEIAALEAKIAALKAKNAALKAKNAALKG

4H_APH = biological target: T9, 4H_APH; conditions: mean of both orientations
T9 chain: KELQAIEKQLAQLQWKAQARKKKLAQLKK

GCN2_T = biological target: GCN2_T
4H249-AA = biological target: T10, 4H249-AA
T10 chain: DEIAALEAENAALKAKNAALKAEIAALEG

4H2774-AA = biological target: T11, 4H2774-AA; conditions: mean of both orientations
T11 chain: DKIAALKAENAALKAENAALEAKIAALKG

4H_BCR = biological target: T12, 4H_BCR; conditions: mean of both orientations
T12 chain: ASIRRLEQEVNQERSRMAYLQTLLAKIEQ

4H3165-AA = biological target: T13, 4H3165-AA
T13 chain: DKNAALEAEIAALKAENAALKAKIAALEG

4H3009-AA = biological target: T14, 4H3009-AA; conditions: mean of both orientations
T14 chain: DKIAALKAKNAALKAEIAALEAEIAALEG

4H2698-AA = biological target: T15, 4H2698-AA; conditions: mean of both orientations
T15 chain: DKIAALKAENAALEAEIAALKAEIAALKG

4H94-AA = biological target: T16, 4H94-AA; conditions: mean of both orientations
T16 chain: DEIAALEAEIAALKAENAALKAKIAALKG

4H3753-AA = biological target: T17, 4H3753-AA; conditions: mean of both orientations
T17 chain: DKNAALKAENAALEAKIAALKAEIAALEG

4H3410-AA = biological target: T18, 4H3410-AA; conditions: mean of both orientations
T18 chain: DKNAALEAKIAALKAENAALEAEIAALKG

4H458-AA = biological target: T19, 4H458-AA; conditions: mean of both orientations
T19 chain: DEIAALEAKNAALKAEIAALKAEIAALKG

4H710-AA = biological target: T20, 4H710-AA; conditions: mean of both orientations
T20 chain: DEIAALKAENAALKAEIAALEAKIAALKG

4H2473-AA = biological target: T21, 4H2473-AA; conditions: mean of both orientations
T21 chain: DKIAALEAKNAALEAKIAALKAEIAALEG

4H850-AA = biological target: T22, 4H850-AA; conditions: mean of both orientations
T22 chain: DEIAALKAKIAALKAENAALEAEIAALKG

4H310-AA = biological target: T23, 4H310-AA; conditions: mean of both orientations
T23 chain: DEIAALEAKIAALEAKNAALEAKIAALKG

4H3120-AA = biological target: T24, 4H3120-AA; conditions: mean of both orientations
T24 chain: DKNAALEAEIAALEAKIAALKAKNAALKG

4H2389-AA = biological target: T25, 4H2389-AA; conditions: mean of both orientations
T25 chain: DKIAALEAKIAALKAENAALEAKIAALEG

4H2274-AA = biological target: T26, 4H2274-AA; conditions: mean of both orientations
T26 chain: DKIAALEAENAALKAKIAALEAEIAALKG

4H797-AA = biological target: T27, 4H797-AA; conditions: mean of both orientations
T27 chain: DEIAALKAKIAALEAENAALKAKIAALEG

4H2330-AA = biological target: T28, 4H2330-AA; conditions: mean of both orientations
T28 chain: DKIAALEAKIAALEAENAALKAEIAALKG

4H3590-AA = biological target: T29, 4H3590-AA; conditions: mean of both orientations
T29 chain: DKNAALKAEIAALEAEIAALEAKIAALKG

4H2438-AA = biological target: T30, 4H2438-AA; conditions: mean of both orientations
T30 chain: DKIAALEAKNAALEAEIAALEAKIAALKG

4H629-AA = biological target: T31, 4H629-AA; conditions: mean of both orientations
T31 chain: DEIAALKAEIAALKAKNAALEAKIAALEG

4H2253-AA = biological target: T32, 4H2253-AA; conditions: mean of both orientations
T32 chain: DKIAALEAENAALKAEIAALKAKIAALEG

4H2865-AA = biological target: T33, 4H2865-AA; conditions: mean of both orientations
T33 chain: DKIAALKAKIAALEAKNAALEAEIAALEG

4H570-AA = biological target: T34, 4H570-AA; conditions: mean of both orientations
T34 chain: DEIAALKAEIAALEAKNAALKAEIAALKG

4H3395-AA = biological target: T35, 4H3395-AA; conditions: mean of both orientations
T35 chain: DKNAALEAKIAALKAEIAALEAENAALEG

4H3016-AA = biological target: T36, 4H3016-AA; conditions: mean of both orientations
T36 chain: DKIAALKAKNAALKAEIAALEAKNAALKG

4H485-AA = biological target: T37, 4H485-AA; conditions: mean of both orientations
T37 chain: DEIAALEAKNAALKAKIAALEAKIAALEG

4H909-AA = biological target: T38, 4H909-AA; conditions: mean of both orientations
T38 chain: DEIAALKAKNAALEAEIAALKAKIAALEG

4H536-AA = biological target: T39, 4H536-AA; conditions: mean of both orientations
T39 chain: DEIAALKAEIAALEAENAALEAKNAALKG

4H2649-AA = biological target: T40, 4H2649-AA; conditions: mean of both orientations
T40 chain: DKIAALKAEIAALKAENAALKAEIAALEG

4H891-AA = biological target: T41, 4H891-AA; conditions: mean of both orientations
T41 chain: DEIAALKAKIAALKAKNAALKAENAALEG

4H2725-AA = biological target: T42, 4H2725-AA; conditions: mean of both orientations
T42 chain: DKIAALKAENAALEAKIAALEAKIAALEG

For DENAALEAENAALEAEIAALEAEIAALEG [4H1153-AA], the interaction score (4H2611-AA; mean of both orientations) was -1.92, the interaction score (4H3606-AA) was -0.981 and the interaction score (4H3631-AA) was 0.849. The interaction score (4H697-AA) was -1.68, the interaction score (4H3697-AA) was -1.72 and the interaction score (4H3865-AA) was -1.67. For the same binder, the interaction score (4H717-AA) was -1.1 and the interaction score (4H384-AA) was -0.314.

DEIAALEAENAALKAKNAALKAEIAALEG [4H249-AA] gave an interaction score (4H2611-AA; mean of both orientations) of -1.99, an interaction score (4H_APH) of -1.97 and an interaction score (GCN2_T) of -1.96. It also gave an interaction score (4H249-AA) of -0.781, an interaction score (4H2774-AA) of 1.92 and an interaction score (4H_BCR) of -1.72.

Work on DENAALEAEIAALEAKIAALEAKNAALKG [4H1064-AA] yielded an interaction score (4H249-AA; mean of both orientations) of -2.06 and an interaction score (4H2774-AA) of -1.39.

Binder DENAALEAKIAALKAKIAALKAEIAALEG [4H1385-AA] has an interaction score (4H3165-AA) of -1.48, an interaction score (4H3009-AA) of 1.33 and an interaction score (4H2698-AA) of 0.136. For the same binder, the interaction score (4H_APH) was -1.13, the interaction score (4H94-AA) was -0.994 and the interaction score (4H3753-AA) was -0.82. For the same binder, the interaction score (4H3410-AA) was -0.247, the interaction score (4H3697-AA) was -0.69 and the interaction score (4H3865-AA) was -1.52. For the same binder, the interaction score (4H458-AA) was -0.706, the interaction score (GCN2_T; mean of both orientations) was -1.2 and the interaction score (4H710-AA) was -0.564. For the same binder, the interaction score (4H2473-AA) was -0.93, the interaction score (4H850-AA) was -0.784 and the interaction score (4H310-AA) was -0.553. For the same binder, the interaction score (4H3120-AA) was 0.706, the interaction score (4H2389-AA) was -1.15 and the interaction score (4H2274-AA) was -0.953. It also gave an interaction score (4H797-AA) of -1.08, an interaction score (4H2330-AA) of -1.41 and an interaction score (4H3590-AA) of 2.4. For the same binder, the interaction score (4H2438-AA) was 1.55, the interaction score (4H629-AA) was -1.12 and the interaction score (4H2253-AA) was -1.44. The interaction score (4H2865-AA) was -0.751, the interaction score (4H570-AA) was -0.556 and the interaction score (4H_BCR) was -1.56. It also gave an interaction score (4H3395-AA) of 0.689, an interaction score (4H3016-AA) of -0.959 and an interaction score (4H485-AA) of -0.799. The interaction score (4H384-AA) was -0.727, the interaction score (4H909-AA) was -1.36 and the interaction score (4H536-AA) was 1.04. For the same binder, the interaction score (4H2649-AA) was -1.29, the interaction score (4H891-AA) was -1.56 and the interaction score (4H2725-AA) was 0.284.

Work on DENAALEAKIAALKAEIAALEAKIAALKG [4H1350-AA] yielded an interaction score (4H2611-AA) of -1.74, an interaction score (4H_APH) of -1.67 and an interaction score (GCN2_T) of -1.41. It also gave an interaction score (4H3590-AA) of 2.09, an interaction score (4H_BCR) of -1.28 and an interaction score (4H384-AA) of -0.758.
